Assay results reported in publication PMC1188057, “Dynamic assembly, localization and proteolysis of the Bacillus subtilis SMC complex” (BMC Cell Biology, 2005).

Columns and labels:
[1] = biological target: the molecule itself; assay: SEC + other: sucrose gradient centrifugation; native weight of purified SMC from sedimentation coefficient 6.6 and Stokes radius 8.5; monomers to dimer
[2] = biological target: the molecule itself; assay: SEC; analytical gel filtration, Superdex 200 10/300 GL; 50 mM HEPES, 300 mM NaCl, pH 8.0; proteins incubated 30 min; ScpA and ScpB alone or mixed (1:2.5, 1:0.83, 1:10), fractions on SDS-PAGE

Protein	stoichiometry N [1]	stoichiometry N [2]
SMC protein (Bacillus subtilis), His-tagged, purified (natural protein, UniProt P51834 1-1186, looked up, SMC, Bacillus subtilis; monomeric size 135 kDa as printed; also called wild-type SMC; wild type SMC) MFLKRLDVIGFKSFAERISVDFVKGVTAVVGPNGSGKSNITDAIRWVLGEQSARSLRGGKMEDIIFAGSDSRKRLNLAEVTLTLDNDDHFLPIDFHEVSVTRRVYRSGESEFLINNQPCRLKDIIDLFMDSGLGKEAFSIISQGKVEEILSSKAEDRRSIFEEAAGVLKYKTRKKKAENKLFETQDNLNRVEDILHELEGQVEPLKIQASIAKDYLEKKKELEHVEIALTAYDIEELHGKWSTLKEKVQMAKEEELAESSAISAKEAKIEDTRDKIQALDESVDELQQVLLVTSEELEKLEGRKEVLKERKKNAVQNQEQLEEAIVQFQQKETVLKEELSKQEAVFETLQAEVKQLRAQVKEKQQALSLHNENVEEKIEQLKSDYFELLNSQASIRNELQLLDDQMSQSAVTLQRLADNNEKHLQERHDISARKAACETEFARIEQEIHSQVGAYRDMQTKYEQKKRQYEKNESALYQAYQYVQQARSKKDMLETMQGDFSGFYQGVKEVLKAKERLGGIRGAVLELISTEQKYETAIEIALGASAQHVVTDDEQSARKAIQYLKQNSFGRATFLPLSVIRDRQLQSRDAETAARHSSFLGVASELVTFDPAYRSVIQNLLGTVLITEDLKGANELAKLLGHRYRIVTLEGDVVNPGGSMTGGAVKKKNNSLLGRSRELEDVTKRLAEMEEKTALLEQEVKTLKHSIQDMEKKLADLRETGEGLRLKQQDVKGQLYELQVAEKNINTHLELYDQEKSALSESDEERKVRKRKLEEELSAVSEKMKQLEEDIDRLTKQKQTQSSTKESLSNELTELKIAAAKKEQACKGEEDNLARLKKELTETELALKEAKEDLSFLTSEMSSSTSGEEKLEEAAKHKLNDKTKTIELIALRRDQRIKLQHGLDTYERELKEMKRLYKQKTTLLKDEEVKLGRMEVELDNLLQYLREEYSLSFEGAKEKYQLETDPEEARKRVKLIKLAIEELGTVNLGSIDEFERVNERYKFLSEQKEDLTEAKNTLFQVIEEMDEEMTKRFNDTFVQIRSHFDQVFRSLFGGGRAELRLTDPNDLLHSGVEIIAQPPGKKLQNLNLLSGGERALTAIALLFSILKVRPVPFCVLDEVEAALDEANVFRFAQYLKKYSSDTQFIVITHRKGTMEEADVLYGVTMQESGVSKVISVKLEETKEFVQ	2	
ScpB (Bacillus subtilis), His-tagged, purified (natural protein, UniProt P35155 1-197, looked up, ScpB, Bacillus subtilis; elutes at 65 kDa in gel filtration (dimer)) MGLDIVNWKAIVEALLYAAGDEGLTKKQLLTVLEIEEPELNTIMADVADEYRGDTRGIELIEYADTYMLSTKKDFAPYLKKLIEVPSKGLSQASLEVLAIVSYKQPITRAEIEEIRGVKSERILHSLVAKALLCEVGRADGPGRAILYGTTPTFLEQFGLKTLDELPPLPENAEEDVLQEEADLFFENFNQTFEDIK		2
